Source: patent US20150051149A1 (published 2015)

T1: human PXR-GST (Invitrogen) (human, UniProt O75469 111-434, limits assumed)
T1 construct: Captured on an anti-GST antibody chip; also called GST-PXR; GST-tagged PXR; not shown: GST tag
T1 sequence (looked up): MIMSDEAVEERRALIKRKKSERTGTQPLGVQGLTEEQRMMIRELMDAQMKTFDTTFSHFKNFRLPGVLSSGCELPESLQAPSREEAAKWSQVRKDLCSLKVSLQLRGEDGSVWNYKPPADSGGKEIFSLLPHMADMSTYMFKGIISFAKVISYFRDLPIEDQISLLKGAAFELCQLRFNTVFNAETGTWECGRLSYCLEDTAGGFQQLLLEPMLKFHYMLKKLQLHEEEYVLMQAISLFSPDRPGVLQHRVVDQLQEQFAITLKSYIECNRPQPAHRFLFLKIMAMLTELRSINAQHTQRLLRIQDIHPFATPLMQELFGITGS


Target: T1, human PXR-GST (Invitrogen)
Test: SPR, Biacore T100, human PXR-GST captured on anti-GST antibody

| Binder | kon [M⁻¹ s⁻¹] |
| --- | --- |
| Adnectin-2 (designed binder) MASTSGVSDVPRDLEVVAATPTSLLISWDAPAVTVNNYRITYQPLLQGSSIQHFDVPGSKSTATISGLKPGVGYQITVYASTYTHSKAYYSLPISIYYRTEGSGSHHHHHH | 162000 |
| Adnectin-3 (designed binder) MASTSGVSDVPRDLEVVAATPTSLLISWDAPAVPVSKYVIYYWPGALISSMQAFKVPGSKSTATISGLKPGVLYSIVVDALTGDGQGSYVWDPITITYRTEGSGSHHHHHH | 16200 |
